Experimental data as given in patent US9057734B2, “Optogenetic probes for measuring membrane potential” (President and Fellows of Harvard College, priority 2010, dated 2015).

Columns and labels:
[1] = system: HEK-293 cells; assay: Fluorescence versus membrane potential under whole-cell voltage clamp (ramp, step, frequency response, noise); type: cell-based, human
Experimental: Fluorescence of Arch 3 in HEK 293 cells was readily imaged in an inverted fluorescence microscope with red illumination (λ=640 nm, I=540 W/cm^2), a high numerical aperture objective, a Cy5 filter set, and an EMCCD camera. […] Cells not expressing Arch were not fluorescent.
HEK-293 cells were grown at 37° C., 5% CO2, in DMEM supplemented with 10% FBS and penicillin-streptomycin. Plasmids were transfected using LIPOFECTAMINE™ and PLUS reagent (Invitrogen) following the manufacturer's instructions, and assayed between 48-72 hours later. The day before recording, cells were re-plated onto glass-bottom dishes (MatTek) at a density of ˜5000 cells/cm^2.
The concentration of endogenous retinal in the HEK cells was not known, so the cells were supplemented with retinal by diluting stock retinal solutions (40 mM, DMSO) in growth medium to a final concentration of 5 μM, and then placing the cells back in the incubator for 1-3 hours. All imaging and electrophysiology were performed in Tyrode's buffer (containing, in mM: 125 NaCl, 2 KCl, 3 CaCl2, 1 MgCl2, 10 HEPES, 30 glucose pH 7.3, and adjusted to 305-310 mOsm with sucrose). Only HEK cells having reversal potentials between −10 and −40 mV were included in the analysis.
(§1) Simultaneous fluorescence and whole-cell patch clamp recordings were acquired on a home-built, inverted epifluorescence microscope at room temperature. A diode laser operating at 100 mW, 640 nm (CrystaLaser, DL638-100-O) provided wide-field illumination at an intensity typically between 500-2000 W/cm^2. To minimize background signal from out-of-focus debris, illumination was often performed in through-the-objective total internal reflection fluorescence (TIRF) mode. Fluorescence emission was collected using a 60×, 1.45 NA oil immersion objective (Olympus), and separated from scattered excitation using a 660-760 nm bandpass emission filter (Chroma). For fast imaging of dynamic fluorescence responses and action potentials, images were acquired on an Andor iXon^+ 860 camera operating at up to 2,000 frames/s (using a small region of interest and pixel binning). Slower images with higher spatial resolution were acquired on an Andor iXon^+ 897 EMCCD. Custom software written in LabView (National Instruments) was used to synchronize illumination, collection of images, recording of membrane potential and cell current, and application of electrical stimuli to the cell.
Filamented glass micropipettes (WPI) were pulled to a tip resistance of 3-10 MΩ, fire polished, and filled with internal solution (containing, in mM: 125 Potassium gluconate, 8 NaCl, 0.6 MgCl2, 0.1 CaCl2, 1 EGTA, 10 HEPES, 4 Mg-ATP, 0.4 Na-GTP, pH 7.3; adjusted to 295 mOsm with sucrose). The micropipettes were positioned with a Burleigh PCS 5000 micromanipulator. Whole-cell, voltage clamp recordings were acquired using an AxoPatch 200B amplifier (Molecular Devices), filtered at 2 kHz with the internal Bessel filter, and digitized with a National Instruments PCIE-6323 acquisition board at 10 kHz. Ambient 60 Hz noise was removed using a HumBug Noise Eliminator (AutoMate Scientific). For experiments requiring rapid modulation of transmembrane potential, series resistance and whole-cell capacitance were predicted to 95% and corrected to ˜50%. Electrical stimuli were generated using the PCIE-6323 acquisition board and sent to the AXOPATCH™, which then applied these signals in either constant current or constant voltage mode.
To measure fluorescence as a function of membrane potential, a triangle wave was applied, with amplitude from −150 mV to +150 mV and period 12 s, with video recording at 100 ms per frame. A pixel weight matrix was calculated according to Eq. S2 and applied to the movie images to generate a fluorescence number for each frame. These fluorescence values were divided by their minimum value (at V=−150 mV). The result is plotted as a function of Vin FIGS. 7 and 8. […]

[2] = system: HEK cells; assay: Photocurrents under 640 nm illumination in voltage-clamped cells; type: cell-based, human
Experimental: Measurements of photocurrents were performed on HEK cells held in voltage clamp at 0 mV while being exposed to brief (200 ms) pulses of illumination at 640 nm at an intensity of 1800 W/cm^2.

[3] = system: cultured rat hippocampal neurons; assay: Optical recording of action potentials under whole cell current clamp; type: cell-based
From the text: We tested Arch 3 as a voltage indicator in cultured rat hippocampal neurons, using viral delivery. […] Individual spikes were accompanied by clearly identifiable increases of fluorescence (FIG. 7A). At a 2 kHz image acquisition rate, the signal-to-noise ratio in the fluorescence (spike amplitude:baseline noise) was 10.5.
as §1
E18 rat hippocampi were purchased from BrainBits and mechanically dissociated in the presence of 1 mg/mL papain (Worthington) before plating at 5,000-30,000 cells per dish on poly-L-lysine and Matrigel-coated (BD Biosciences) glass-bottom dishes. Cells were incubated in N+ medium (100 mL Neurobasal medium, 2 mL B27 supplement, 0.5 mM glutamine, 25 μM glutamate, penicillin-streptomycin) for 3 hours. […]
A spike identification algorithm was developed that could be applied either to electrically recorded V(t) or to optically determined V(t). […]

B1: Arch 3 WT: Archaerhodopsin 3, light-driven proton pump from Halorubrum sodomense, used as fluorescent voltage indicator (protein)
chain: MDPIALQAGYDLLGDGRPETLWLGIGTLLMLIGTFYFLVRGWGVTDKDAREYYAVTILVPGIASAAYLSMFFGIGLTEVTVGGEMLDIYYARYADWLFTTPLLLLDLALLAKVDRVTIGTLVGVDALMIVTGLIGALSHTAIARYSWWLFSTICMIVVLYFLATSLRSAAKERGPEVASTFNTLTALVLVLWTAYPILWIIGTEGAGVVGLGIETLLFMVLDVTAKVGFGFILLRSRAILGDTEAPEPSAGADVSAAD
modifications: Halorubrum sodomense
notes: Archaerhodopsin 3, light-driven proton pump from Halorubrum sodomense, used as fluorescent voltage indicator
[1]; HEK cells
  voltage steps resolved/reported: 10 mV
[1]; continuous 10-minute exposure, 640 nm, 540 W/cm2
  photobleaching: 17%
[1]; sinusoidal membrane potential, f=1 kHz
  fluorescence oscillation amplitude retained relative to low-frequency amplitude: 55%
[1]; steps between −70 mV and +30 mV
  response time to a step in membrane potential: < 0.5 ms
[1]; time resolution of imaging system, rising and falling edge
  response of fluorescence to a step in membrane potential, time: ≤ 500 μs
[1]; whole-cell voltage clamp
  increase of fluorescence (fold/factor) between −150 mV and +150 mV: 2
[2]; 640 nm, HEK cells
  photocurrents induced by imaging laser: 10-20 pA
[2]; illumination at 640 nm
  photocurrent / photoinduced proton pumping: retains the photoinduced proton-pumping
[3]; 2 kHz image acquisition rate
  signal-to-noise ratio in the fluorescence (spike amplitude:baseline noise): 10.5
[3]; n=269 spikes
  false-positive rate: 0.7%
[3]; up to 4 minutes of cumulative exposure
  change in resting potential or spike frequency during observation: no detectable change in resting potential or spike frequency
